Assay results as given in patent US20220259281A1 (SHATTUCK LABS, published 2022).

Tests used:
[1] = target: T1, universal-heterologous chimeric protein specific anti-Fc antibody; test: sandwich ELISA: capture by anti-Fc antibody, detection by biotinylated anti-human OX40L antibody; Abs450nm against log[Agonist], nM, nM is from the x axis
human OX40 = target: T2, human OX40 (human, UniProt P43489 29-277); test: flow cytometry binding to CHOK1/hOX40 cells; supernatant as % of total reaction volume
T2 construct: whole, on cells; also called hOX40; OX40 on CHO-K1/hOX40 cells
T2 sequence (looked up): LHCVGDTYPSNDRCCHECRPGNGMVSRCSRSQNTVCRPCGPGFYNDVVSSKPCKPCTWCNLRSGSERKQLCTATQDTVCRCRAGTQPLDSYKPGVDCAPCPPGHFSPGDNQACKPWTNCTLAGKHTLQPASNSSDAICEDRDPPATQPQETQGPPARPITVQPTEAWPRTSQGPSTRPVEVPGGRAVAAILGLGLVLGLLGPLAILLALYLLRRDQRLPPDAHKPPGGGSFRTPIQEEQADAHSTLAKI
Description: (§1) In another experiment, the CHO-K1/hPD-L1 cells were incubated with increasing amounts of the neat culture supernatant of the Jurkat parental or Jurkat/hPD-1-Fc-OX40L cells produced as discussed in Example 2. Binding was detected using flow cytometry and the MFI was calculated and plotted as a function of the amount of the neat culture supernatant of Jurkat parental or Jurkat/hPD-1-Fc-OX40L cells. […] Further, the CHO-K1/hOX40 cells were incubated with increasing amounts of the neat culture supernatant of the Jurkat parental or Jurkat/hPD-1-Fc-OX40L cells produced as discussed in Example 2. Binding was detected using flow cytometry and the MFI was calculated and plotted as a function of the amount of the neat culture supernatant of Jurkat parental or Jurkat/hPD-1-Fc-OX40L cells.

anti-human PD-1 antibody = test: MSD dual binding assay; Coat: anti-hPD1, Detect: anti-hOX40L; 3-fold dilution series drawn as bars
Description: Concentrated, de-salted culture supernatant was prepared as follows: 40 million Jurkat parental cells, Jurkat cells expressing human PD-1-Fc-4-1BBL chimeric protein (Jurkat/hPD-1-Fc-4-1BBL), Jurkat cells expressing human PD-1-Fc-OX40L chimeric protein (Jurkat/hPD-1-Fc-OX40L), or Jurkat cells expressing human CSF1R-Fc-CD40L chimeric protein (Jurkat/hCSF1R-Fc-CD40L) were cultured in 60 mL of media for 48 hours. After this, the media were harvested and concentrated 50-75× using AMICON-15 50K columns. Concentrated supernatant was desalted over a ZEBA desalting column or directly dialyzed in PBS and used in experiments. The resulting supernatant was also termed “neat” supernatant.
The PD-1-Fc-OX40L chimeric protein harbors the extracellular domain of PD-1 protein domain at or near the N-terminus and the extracellular domain of OX40 Ligand (OX40L) protein domain at or near the C-terminus. To understand whether the extracellular domains of PD-1 and OX40L can simultaneously bind to respective antibodies, an anti-human PD-1 antibody was coated on a plate. Three-fold serial dilutions neat culture supernatants of Jurkat parental cells or Jurkat/hPD-1-Fc-OX40L cells were added to the plate. […] The plate was incubated to allow capture of any protein by the plate-bound anti-human PD-1 antibody. […] Binding was detected using the MSD platform.

human PD-L1 = target: T3, human PD-L1 (human, UniProt Q9NZQ7 19-290); test: flow cytometry binding to CHOK1/hPDL1 cells; supernatant as % of total reaction volume
T3 construct: whole, on cells; also called hPD-L1; PD-L1 on CHO-K1/hPD-L1 cells
T3 sequence (Q9NZQ7 19-290): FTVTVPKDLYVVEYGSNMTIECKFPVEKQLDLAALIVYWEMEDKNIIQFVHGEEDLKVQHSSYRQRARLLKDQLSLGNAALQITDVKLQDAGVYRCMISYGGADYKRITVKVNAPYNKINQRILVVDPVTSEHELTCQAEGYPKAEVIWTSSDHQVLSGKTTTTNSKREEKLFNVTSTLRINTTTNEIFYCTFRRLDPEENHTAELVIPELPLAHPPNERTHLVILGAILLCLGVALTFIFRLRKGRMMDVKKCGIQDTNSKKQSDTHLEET
Description: as §1

[2] = target: T1, universal-heterologous chimeric protein …; test: sandwich ELISA: capture by anti-Fc antibody, detection by biotinylated anti-human OX40L antibody; concentrated culture media, the protein concentration in it is not given so the x values are nominal; the fitted value lies beyond the highest point shown (log about 2.8), nM is from the x axis

- EC50 [1]: 37.3 nM
- binding result (human OX40): binds
- EC50 (read off the curve) (anti-human PD-1 antibody): ~0.08 µg/mL
- binding result (human PD-L1): binds
- EC50 [2]: 2690 nM
B1: human PD-1-Fc-OX40L heterologous chimeric protein (Fc fusion)
chain: LDSPDRPWNPPTFSPALLVVTEGDNATFTCSFSNTSESFVLNWYRMSPSNQTDKLAAFPEDRSQPGQDCRFRVTQLPNGRDFHMSVVRARRNDSGTYLCGAISLAPKAQIKESLRAELRVTERRAEVPTAHPSPSPRPAGQFQSKYGPPCPPCPAPEFLGGPSVFLFPPKPKDQLMISRTPEVTCVVVDVSQEDPEVQFNWYVDGVEVHNAKTKPREEQFNSTYRVVSVLTVLHQDWLSGKEYKCKVSSKGLPSSIEKTISNATGQPREPQVYTLPPSQEEMTKNQVSLTCLVKGFYPSDIAVEWESNGQPENNYKTTPPVLDSDGSFFLYSRLTVDKSRWQEGNVFSCSVLHEALHNHYTQKSLSLSLGKIEGRMDQVSHRYPRIQSIKVQFTEYKKEKGFILTSQKEDEIMKVQNNSVIINCDGFYLISLKGYFSQEVNISLHYQKDEEPLFQLKKVRSVNSLMVASLTYKDKVYLNVTTDNTSLDDFHVNGGELILIHQNPGEFCVL
notes: Tested as secreted protein in Jurkat supernatant and as purified protein; also called hPD-1-Fc-OX40L; hPD1-Fc-OX40L
